Experimental data published in US20110237462A1 (FUJIFILM, published 2011).

Target: T1, MBP-VH(BGP) labeled with ALEXA FLUOR 555 together with MBP-VL(BGP) labeled with ALEXA FLUOR 647 (labeled with ALEXA FLUOR 647 (labeled residues not stated); labeled with ALEXA FLUOR 555 (labeled residues not stated))
T1 construct: Two separate MBP-fused antibody fragments, covalently immobilized on a carboxymethyl dextran glass substrate; The MBP leader is part of the printed entries; also called fusion protein of anti-osteocalcin (BGP) VH-region polypeptide with MBP; fusion protein of anti-BGP VL-region polypeptide (antibody KTM219) with MBP
Experiment: FRET on immobilization substrates I and J

B1: C-terminal heptapeptide fragment of BGP (RRFYGPY) (peptide)
peptide: RRFYGPY
notes: also called BGP heptapeptide; BGP heptapeptide (RRFYGPY)
- binding result: binds
